Assay [1] concerns the target MUC1 on HCT116/MUC1 cells (human) (UniProt P15941). The experiment in a line: flow cytometry on HCT116-MUC1 cells, 5 µg isotype control, 60 min on ice. Background: Flow cytometry measures light scatter and fluorescence of single cells or particles in a stream.
For assay [2] the target is unchanged. The experiment in a line: flow cytometry titration on HCT116/MUC1 cells; isotype control.

Sequence of MUC1 on HCT116/MUC1 cells (human) (P15941 24-1255): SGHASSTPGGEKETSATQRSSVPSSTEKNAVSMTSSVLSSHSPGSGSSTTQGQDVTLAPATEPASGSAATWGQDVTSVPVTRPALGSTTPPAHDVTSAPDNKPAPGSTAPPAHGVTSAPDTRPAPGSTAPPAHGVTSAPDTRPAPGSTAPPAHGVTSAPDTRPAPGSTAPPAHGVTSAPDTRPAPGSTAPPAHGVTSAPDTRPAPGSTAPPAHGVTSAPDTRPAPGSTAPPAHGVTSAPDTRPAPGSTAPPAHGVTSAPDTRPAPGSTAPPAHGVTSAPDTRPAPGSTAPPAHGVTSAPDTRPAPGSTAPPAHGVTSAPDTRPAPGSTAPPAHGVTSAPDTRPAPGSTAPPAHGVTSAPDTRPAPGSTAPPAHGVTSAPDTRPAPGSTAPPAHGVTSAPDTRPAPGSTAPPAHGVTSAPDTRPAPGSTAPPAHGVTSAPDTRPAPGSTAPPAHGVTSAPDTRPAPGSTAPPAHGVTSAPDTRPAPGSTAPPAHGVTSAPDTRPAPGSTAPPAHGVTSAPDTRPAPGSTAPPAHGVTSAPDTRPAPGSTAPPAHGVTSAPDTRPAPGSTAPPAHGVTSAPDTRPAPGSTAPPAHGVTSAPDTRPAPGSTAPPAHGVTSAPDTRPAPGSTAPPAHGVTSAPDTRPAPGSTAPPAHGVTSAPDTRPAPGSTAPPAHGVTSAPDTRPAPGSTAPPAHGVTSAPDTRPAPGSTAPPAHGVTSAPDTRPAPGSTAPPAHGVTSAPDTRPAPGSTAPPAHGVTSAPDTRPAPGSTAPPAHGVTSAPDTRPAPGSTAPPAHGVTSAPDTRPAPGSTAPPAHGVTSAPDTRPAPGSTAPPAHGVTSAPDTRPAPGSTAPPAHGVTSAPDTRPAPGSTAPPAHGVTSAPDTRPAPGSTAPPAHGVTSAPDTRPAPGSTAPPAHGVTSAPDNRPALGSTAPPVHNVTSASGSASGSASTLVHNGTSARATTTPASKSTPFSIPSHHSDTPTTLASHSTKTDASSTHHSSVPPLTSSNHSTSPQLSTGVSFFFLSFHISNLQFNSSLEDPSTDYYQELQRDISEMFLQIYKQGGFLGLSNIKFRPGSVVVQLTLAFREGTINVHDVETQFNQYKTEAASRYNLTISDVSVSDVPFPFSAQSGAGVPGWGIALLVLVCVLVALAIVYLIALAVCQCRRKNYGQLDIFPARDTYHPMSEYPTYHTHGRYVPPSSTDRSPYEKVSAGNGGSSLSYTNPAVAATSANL

As for Control (antibody), the number over the gate bar (share of cells in the positive gate) in assay [1] is 0.6.

Broadly, the EC50 is the concentration needed to bring the measured effect to its halfway point. Higher therefore signals weaker potency. In the case of Human IgG (antibody), the concentration for a half-maximal effect (EC50) in assay [2] stood at 0.292 nM. That is a sub-nanomolar value.

Values taken from patent US20230265208A1.
